Columns and labels:
recombinant human IL-13 [1] = biological target: T1, recombinant human IL-13 (human, UniProt P35225 35-146); test: cell-based or functional assay
human TSLP [2] = biological target: T2, human TSLP (human, UniProt Q969D9 29-159); test: cell-based or functional assay
recombinant human IL-13 [3] = biological target: T1, recombinant human IL-13; test: cell-based or functional assay; remark: listed apart in the source
hTSLP-His [4] = biological target: T3, hTSLP-His (human, UniProt Q969D9 29-159, limits assumed); test: competition ELISA, 7 nM TSLP-His pre-incubated with antibody; competitor Tezepelumab coated
T3 construct: bought; also called hTSLP (ACROBiosystems TSP-H52Hb); not shown: His tag

human TSLP [5] = biological target: T2, human TSLP; test: SPR
recombinant human IL-13 [6] = biological target: T1, recombinant human IL-13; test: SPR
hTSLP-His [7] = biological target: T3, hTSLP-His; test: competition ELISA: antibody titrated and pre-incubated with 7 nM TSLP-His, then on a plate coated with 33.001 (Tezepelumab), anti-His detection; row head on the sheet reads EC50, unit from the axis
hTSLP-His [8] = biological target: T3, hTSLP-His; test: as above; remark: listed apart in the source
hTSLP-His [9] = biological target: T3, hTSLP-His; test: cell-based or functional assay
[10] = biological target: T4, cynomolgus monkey (cyno) TSLP (cynomolgus monkey, UniProt A0A7N9CAT7 29-159); test: SPR
T4 construct: also called cTSLP; cynomolgus TSLP
T4 sequence (A0A7N9CAT7 entry or part of it): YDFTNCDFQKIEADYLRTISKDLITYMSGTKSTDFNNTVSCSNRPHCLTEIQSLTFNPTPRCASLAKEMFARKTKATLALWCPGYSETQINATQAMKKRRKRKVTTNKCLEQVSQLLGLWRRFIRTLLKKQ

[11] = biological target: T5, recombinant cynomolgus monkey IL-13 (cynomolgus monkey, UniProt Q0PW92 21-132); test: SPR
T5 construct: bought; also called rc-IL-13; cIL-13
T5 sequence (Q0PW92 entry or part of it): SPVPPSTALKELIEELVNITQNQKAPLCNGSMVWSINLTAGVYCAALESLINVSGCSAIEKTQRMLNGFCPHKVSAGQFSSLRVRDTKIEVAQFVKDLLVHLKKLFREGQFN

T1 sequence (P35225 35-146 limits assumed): as the sequence (Q0PW92 entry or part of it) above, with S1G, K10R, V42M, N67S, R83H, V100L counted along it

Row | HEK-IL-13 [nM] (IC50, STAT6 reporter) (recombinant human IL-13 [1]) | IC50 TARC (human TSLP [2]) | IC50 CD23 (recombinant human IL-13 [3]) | IC50 (hTSLP-His [4]) | Kd (human TSLP [5]) | koff (human TSLP [5]) | kon (human TSLP [5]) | Kd (recombinant human IL-13 [6]) | koff (recombinant human IL-13 [6]) | kon (recombinant human IL-13 [6]) | IC50 (hTSLP-His [7]) | IC50 (hTSLP-His [8]) | IC50 [pM], STAT5 phosphorylation inhibition in MUTZ5 cells (hTSLP-His [9]) | Kd [10] | koff [10] | kon [10] | Kd [11] | koff [11] | kon [11] | Binder
1 | 0.043 nM | 1.58 nM | 0.0391 nM | 2.7 nM | 0.0616 nM | 0.000158 s⁻¹ | 2.56e+06 M⁻¹ s⁻¹ | 0.114 nM | 0.000956 s⁻¹ | 8.41e+06 M⁻¹ s⁻¹ | 2.73 nM |  |  |  |  |  |  |  |  | BDG38.082 (antibody, V domains shown, IgG1) VH: QMQLVESGGGVVQPGRSLRLSCAASGFAFRTYGMHWVRQAPGKGLEWVAVIWDDGSNTHYADSVKGRFTITRDNSKNTLNLQMNSLRAEDTAVYYCVRAPQWYLTAEAFDLWGQGTMVTVSS VL: SYVLTQPPSVSVAPGETATITCGGNMIGGYLVHWYQQKPGQAPVLVIYDDVDRPDRIPERFSGSNSGNTATLTISRVEAGDEADYYCQVWDHDTNQVVFGGGTKLTVL
2 | 0.0592 nM | 0.79 nM | 0.201 nM | 3.27 nM | 0.00722 nM | 1.81e-05 s⁻¹ | 2.5e+06 M⁻¹ s⁻¹ | 0.0716 nM | 0.00114 s⁻¹ | 1.59e+07 M⁻¹ s⁻¹ |  | 3.27 nM | 34.3 pM |  |  |  |  |  |  | BDG38.080 (antibody, V domains shown, IgG1) VH: QMQLVESGGGVVQPGRSLRLSCAASGFAFRTYGMHWVRQAPGKGLEWVAVIWYDGSATHYADSVKGRFTITRDNSKNTLNLQMNSLRAEDTAVYYCVRAPQWYLSAEAFDLWGQGTMVTVSS VL: SYVLTQPPSVSVAPGETATITCGGNLIGAYLVHWYQQKPGQAPVLVIYDDSDRPDRIPERFSGSNSGNTATLTISRVEAGDEADYYCQVWDHNTNHMVFGGGTKLTVL
3 | 0.0483 nM | 5.93 nM | 0.0339 nM | 2.2 nM | 0.0692 nM | 0.000125 s⁻¹ | 1.81e+06 M⁻¹ s⁻¹ | 0.0509 nM | 0.000872 s⁻¹ | 1.71e+07 M⁻¹ s⁻¹ | 2.21 nM |  | 38.7 pM | 0.00487 nM | 4.36e-05 s⁻¹ | 8.96e+06 M⁻¹ s⁻¹ | 0.844 nM | 0.00675 s⁻¹ | 8e+06 M⁻¹ s⁻¹ | BDG38.081 (antibody, V domains shown, IgG1) VH: QMQLVESGGGVVQPGRSLRLSCAASGFAFRTYGMHWVRQAPGKGLEWVAVIWDDGSNTHYADSVKGRFTITRDNSKNTLNLQMNSLRAEDTAVYYCVRAPQWYLTAEAFDLWGQGTMVTVSS VL: SYVLTQPPSVSVAPGQTARITCGGNMIGAYLVHWYQQKPGQAPLLVIYDDVDRPDRIPERFSGSNSGNTATLTISRVEAGDEADYYCQVWDHNTQQMVFGGGTKLTVL
4 | 0.0419 nM | 11.4 nM | 0.0215 nM | 3.33 nM | 0.0983 nM | 0.000241 s⁻¹ | 2.45e+06 M⁻¹ s⁻¹ | 0.0565 nM | 0.000401 s⁻¹ | 7.09e+06 M⁻¹ s⁻¹ | 3.33 nM |  |  |  |  |  |  |  |  | BDG38.083 (antibody, V domains shown, IgG1) VH: QMQLVESGGGVVQPGRSLTLSCAASGFEFRTYGMHWVRQAPGKGLEWVGVIWDDGSNTHYADSVKGRFTITRDNSKNTLNLQMNSLRAEDTAVYYCARAPQWYLTAEAFDLWGQGTMVTVSS VL: SYILTQPPSVSVAPGQTATITCGGNLIGAKLVHWYQQKPGQAPVLVIYDDSDRPSRIPERFSGSNIGNTATLTISDVEEGDEADYYCQVWDYSSDTMVFGGGTKLTVL

From US20240059769A1 (BIOLOJIC DESIGN, published 2024)
